Tested on: Saccharomyces cerevisiae
Experiment: transcriptional activation domain activity (GFP:mCherry ratio, weighted mean of sorted bins, harmonized to initial dataset scale) (arbitrary fluorescence ratio units); higher = stronger transcriptional activation
Details: beta-estradiol 1 µM; induction time 4 h
In short: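 Protein tiles carrying barcodes and fused to an estradiol-inducible synthetic transcription factor were placed at the URA3 locus of yeast diploids with a GFP reporter. Following 4 hours at 30 °C in SC with 1 uM beta-estradiol, cells were sorted into 8 GFP:mCherry bins, barcodes were sequenced, and tiles with fewer than 50 reads were discarded. Activation activity is given as the read-weighted mean of bin median fluorescence, averaged across barcodes and linearly mapped to the initial dataset scale.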

First: GCKRESQEREEDKNIEKIRKKKQSVVNRKSKRRSETNRRNIKRNNRQHAARER
Second: GCLLPVTSCVFLAPFTLDFLWIPFLTHYLIILLCWYHLFSLRLLFCCSKSLPT
The “transcriptional activation domain activity” value of the first is lower: 55600 for the first, 57200 for the second.

First: GCLLTFPNKIDWATLVIILFSETFTICLLLIKGFYWVISSAHKVGDRVLYYVA
Second: GCRKDQRARRRRSPALANRPEMKGVCLKTGITKPKKPNSGERKTARIRLSSGR
The “transcriptional activation domain activity” value of the first is higher: 50800 for the first, 38900 for the second.

First: GCRNAYEIKTLRFGGVCMLHRCGGGQNCFKECCIDLMICLRFYIPFMKKFCPK
Second: GCVVSCKLVGLFTITLIGVAVLYDLWRIIDIRRGTTMAQFARHFVARALALIA
The “transcriptional activation domain activity” value of the first is lower: 15900 for the first, 21600 for the second.

Going from “GCWGETWWYTMQFGALLAEGAAQHWLGLLEQKVLPWSRYGMMQKGLRRLFGYV” to “GDADEDGNGHGTHCSGTVAGKKYGVAKKANVYAVKVLRSNGSGSMSDVVKGVE”, the “transcriptional activation domain activity” value falls from 75600 to 30300.

Compared with “GDADVDGNGHGTHCSGTIAGKKYGVSKKAKIYAVKVLRSNGSGTMADVVAGVE”, “GDAEPSSKGGEDSSGGEGSADEEKPKAKPAKAKSKSSSSKEPVKKKAKKEKKD” is lower in “transcriptional activation domain activity” value: 59400 for the first, 21400 for the second.

Going from “GDAGGSSAAEQREAGQERRQRRGAERRQRQSVFEQLGGAEQRGAGRGSAGRGG” to “GDAHAAPKGRKGGGKKRKAADEDGEEEGEAEKPAKKAGKRGKKGKATPTQEEG”, the “transcriptional activation domain activity” value rises from < 6570 to 12100.

First: GDAKSTLEQLGDDAKLVDEDGNLCDAECIVDKVKEVVKHAGRTTRKSLLKLGL
Second: GDAPASFHSFCVVRVFMDVCWLGKRLCLKVLNMDPTCPWLMLLLLKATRLHLS
The “transcriptional activation domain activity” value of the first is lower: 51100 for the first, 65300 for the second.

Going from “GDDCEVFFLFTFTFTFFFFYFFPRVLFTPFFFYILDLSLFFYCCSCFFFFSPC” to “GDDEETQGNATKNILDDWEGAPESFVCQEQRQTGGRVAAKTQRLLSFSIHDEL”, the “transcriptional activation domain activity” value falls from 27100 to 23100.

First: GDDETDAPAKPKEGEDEKKPSSASPEDDLRSSRRSHKKREPGHRDRDRERDRD
Second: GDEDEEDTAELKEEALKGLIAVLVCASVLSIVRALMHSQLDLSILELLVDNMT
The “transcriptional activation domain activity” value of the first is lower: 15300 for the first, 53600 for the second.

Going from “GDEEREQRKKHKKRKDRGSDDEDRHHKHKHKKDKHREKGTKDSKKHRGNEPSS” to “GDEIVVVIQRARPVSAAAASSVTAVKVRRGDVRRAVIVRTRKAVRRPDGRYIR”, the “transcriptional activation domain activity” value rises from 64300 to 70400.

Compared with “GDEKKRNRERSREGGHRERSRSPDRERRSRRKRSHSRDRSSTRRRHKRHRSRS”, “GDEKLAKGRGDEKPAKGKGKEKKAKAKGKKAKGEKKAEDKENAVKESLENAVK” is higher in “transcriptional activation domain activity” value: 30400 for the first, 32800 for the second.

Going from “GDERSRKAGEKETSRGGRGAGGGRRETGRKEKPGGKAGKGGRTRAGGRGREKK” to “GDESRIDTKFFFGCVGLSNVVFIWPVLVLFHYLGIERFGLPPSSRIWWLLLLN”, the “transcriptional activation domain activity” value rises from 21800 to 50100.

Compared with “GDFESKCYLFEPSELRFPPHVFSLTNGRLYRRWYFLDLQSGMLFRFFYICDWR”, “GDFNDKTLKENCRVDSQQDCYDLAQLQILESDFWKTIAFSKPFYAVDENSSIF” is higher in “transcriptional activation domain activity” value: 32700 for the first, 102000 for the second.

Going from “GDGKEEGAQKKKKKKAKKAHGEEGEQEGGDEKAKKKKKKKKKKALGGRARARA” to “GDGTPTLSWRHDLGGGEVRDLEVTVVKVHSGEVTLLSSATLKLVLVFHLSSTI”, the “transcriptional activation domain activity” value rises from 26600 to 43400.

First: GDKEKRKTSRRSRSPSRGRHQRRGGGGGEESRPRSESPRRRRRRLDSSARRDD
Second: GDKNKRKRGDSAASEAQAGQQEAAKEVQQKKKRVRSKGKAAAPPVAQASAGAS
The “transcriptional activation domain activity” value of the first is lower: 44400 for the first, 45300 for the second.

Compared with “GDKTEGAEGEDGAQRRQSTRGRGRSGRGRGGRGRGGRADENKDEENHEDAGES”, “GDLGFRDSIVTKVLQDARSNFLVSVSRLLRPIFVLMKKWVRLAVERLNICHSR” is higher in “transcriptional activation domain activity” value: 22500 for the first, 33300 for the second.

Going from “GDQGAGRRDRRRRLGHRGGGEGRGREEGEEGRRDGEGRHRGEGGREEGEEEDR” to “GDSTNGNNSPVEDEANLRRKAKKRREKEREREEKKRVGRREKAKKTNGGEKQG”, the “transcriptional activation domain activity” value rises from 14300 to 27000.

Reference: the supplement of paper PMC12636428
